# Assay: yeast display, Sf9 membrane polyspecificity reagent, FACS + sequencing; frameworks hold sequencing errors
# Method in brief: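 Nanobodies came from a synthetic yeast display library in Saccharomyces cerevisiae BJ5465, induced with galactose for 36–48 hours and stained for 1 hour at 4 °C with 10% biotinylated, detergent-solubilized Sf9 membrane reagent. Cells were enriched on streptavidin microbeads and then FACS-sorted, with low and high (top ~1%) gates set on anti-HA fluorescence for expression and streptavidin fluorescence for reagent binding. Each polyreactivity label reflects the gate a clone came from. Genes were amplified by colony PCR, sequenced by MiSeq 2 × 250 and filtered by CDR length.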
row,Sequence,polyreactivity (PSR sort gate)
1,QVQLQESGRGLVQAGGSLRLSCAASGSISILQSMGWYRQAPGKERELVAGINWGATTYYADSVKGRLTTSRDYAKNTVYLQMNSLKPEDTAVYYCAVPTYYTYPLLYWGQGTQVTVSS,low polyreactivity
2,QVQLQESGRRPGAAGGSPRISCAASGYIFWVAVMGRYRQAPGKDRELVASIGFGCTTYYADSVKCRFTISRDNAKNSVYLQMISLKPEDTAVYYCAAPHYDWGELDYWGQGTQVPVSS,low polyreactivity
3,QVQLQESGRRPGAAGGSPRMSCAASGNIFWVAVMGRYRQAPGKERELVASIGFGCTTYYADSVKCRFTISRDNAKNTVYLQMISLKPEDTAVYYCAAPHYDWGEIDYWGQGTQVPVSS,low polyreactivity
4,QVQLQESGRRPGAAGGSPRMSCAASGNIFWVAVMGRYRQAPGKERELVASIGFGCTTYYADSVKCRFTISRDNAKNTVYLQMISLKPEDTAVYYCAAPHYDWGELDYWGQGTQVPVSS,low polyreactivity
5,QVQLQESGRRPGAAGGSPRMSCAASGNIFWVAVMGRYRQEPGQERELVASIGFGCTTYYADSVKCRFTISRDNAKNTVYLQMISLKPEDTAVYYCAAPHYDWGELDYWGQGTQVPVSS,low polyreactivity
6,QVQLQESGSGLVQAGGSLRLGCAASGNISDAGYMGWYRQAPGKEREFVAAIAAGSNTNYADSVKGRFTISRDNAKNTVYLQLNSLKPEVTAVFYCAVASYARVQYEYWGQGTQVTVNS,low polyreactivity
7,QVQLQESGSGLVQAGGSLRLSCAASGYISLGDNMGWYRQAPGKDREFGATISVGGITYYVDSVKGRFTISRDIAKNTVYLQMNSLTPEDTAVYYCAALEIYYFRYYYWGQGTQVTVSS,low polyreactivity
8,QVQLQESGSGLVQAGGSLRLSSAASGNISHYNDMGWYRQAPGKEREPVATINSGSITYYADSVKGRFTISRDNAKNTVYLQMNSLKPEDTAVYYCAVTQHGYFYLDYWGQGTQVTVSS,high polyreactivity
9,QVQLQESGVGLVQAGGSLGCAASGNISTRSEMGWYRQAPGKEREFVATINSGGITNYADSVKGRFTISRDNAKNTVYLRMNSLKPEDTAVYYREVYGYFSDPYDYWGQGTQVTVSS,low polyreactivity
10,QVQLQESGVGLVQAGGSLRLSCAASGTIFRISDMGSYRQAPGKEREFVAAITYGANTYYADSGKGRFTISRDNAKNTVYLQMNSLKPEDTAVYYWAVPPVKETILDYWGQGTQVTVSS,low polyreactivity
11,QVQLQESRGGLLQAGGSLCLSCAASGNIIFDGDMRWYRQAPGKEREFVAAINPGGSAYYADSVKGRLPLAAITHTVYLQLNSLNPPDTAVYYCAAKLFDVYGYYYWGQGTHVTVSS,low polyreactivity
12,QVQLQESRGGLVQAGGSLCLSCAASGTIFIDGDMGWYRQAPGKEREFVAAIKPGGSAYYADSVKGRLPLAAITHTVYLQMNSLKPEDTAVYYCAAKLFDVYGYYYWGQGTQVTLSS,low polyreactivity
13,QVQLQESSGGLVQAGGSLRMSCAASGTIFNFHIMGWYRQAPGKEREFVAAISYGTSTYYADSVKGRFTISRDNAKNTVYLQMNSQKPEDTAVYYCAVFDYLEVYCWYWGQGTQVTVSS,low polyreactivity
14,QVQLQESVGGLVQACGSLRLSCAASGYIFSHQYMGWYRQAPGKERELVASISPGATTNYADSVKGRFTISRDNAKNTVYLQMNSLKPEDTAVYYYAVYQILDRRLSYWGQGTQVTVSC,high polyreactivity
15,QVQLQESVGGLVQAGGSLRLSCAASGNIFPTDRMGWYRQAPGKELEFVATISHGGSTNYADSVKGRFTISRDNAKNTVYLQMNSLKPEDTAVYYCAVWSLGRWRHYYWGQGTQVTVRS,low polyreactivity
16,QVQLQESVGGLVQAGGSLRLSCPASGSIFKVVDMVLYRQAPAKEREFVATIGVGGNTYYADSVKGRFTISRDNAKNTVYLQMNSLKPEDTAVYFYAVVLGTSYRYTYWGQGTQVTVSS,low polyreactivity
17,QVQLQESVGGLVQAGGTLRLSCAGRGNIYTHQLYMGSYRQAPGKEIDFVAAINFGASPYYADSVKGRNTISRDNAKNTVYLLMNSLKPEDTAVYYCAADSAFYDEYQEDYWGQGTQVTLSS,low polyreactivity
18,QVQLQESVVGLEQAGGSLRLSCAASGNIFPTDRMGWYRQAPGKELEFVATISHGGSTNYADSVKGRFTISRVNAKNTVYLQLNSLKPEDTAVYYCAVWSLGRWRHYYWGQGTQVTVSS,low polyreactivity
19,QVQLQETGGGLVQAGGSLRQSCAASRSISPWSYMGRYRQAPGKEREFVASINAGTNTYYADSAKGRITISRDNAKNTVYLQMNSLKPEDTAAYYCAARYWNDYYFPYWGQGTEVTVSS,low polyreactivity
20,QVQLQETGGGLVQVGGSQRLSCAASGNIFYNYAMGWYRHAQGKEREFDATINHGTSINDADSVKGRFTISRDNAKNTVYLQMNSLTPEDTAVYYCAADLSWTDNLFYWGQGTQETVSS,low polyreactivity
21,QVQLQGSGGGLAQAGDSLRLSCAASGTIFSEYNNGLVSPGAGQRTRTCCRYWCWGNTYYADSAKGRFTTSRDNAKNTVYLQKNSLKPEDTAVYYCAFNRPYPSRHIYRGQGTQVTVSS,high polyreactivity

row,Sequence,polyreactivity (PSR sort gate)
1,QVQLQGSGGGLAQAGDSLRLSSEASGTIFSEYNNGLVSPGAGQRTRTCCRYWCWGNTYYPDSAKGRFTTSLDNAKNTVYLQKNSLKPEDTEVYYCAFNRPYPSRHIYRGQGTQVTVSS,high polyreactivity
2,QVQLQVSGGDLVQAGGSLRLSCAASGTIYGLTAMGWYRLAPGKEREFVAAITDGGNTNYADSVKGRFTISRDNAINTVYLQMISLKPEDTAVYYCAVLFSDDAYYAYWGQGTQVTVSS,low polyreactivity
3,QVQLQVSGGGLVNAGGSLRLSCAASGNISPRDAMGWYLQAPGEERDLVASNAYSAITYYADGVTGRSTISRDNAKNTEYLQMNSLKPEDTEVYYCAVYQFTYPVFPAYWGQGTQVTVSS,low polyreactivity
4,QVQLVASGGGLVQAGGSHRLSCAASGRIFYYYAMGWYRQAPGKERELVASINSGGSTYYADSVKGPFTISRDNAKHTVYFQMNSLKPEDTACYYCAAGFQLVKGSLSGRAAYYYWGQGTQVTVSS,high polyreactivity
5,QVQLVASGGGLVQAGGSLRLSCAASGRIFYAYAMGWYRQAPGKERELVAAITISASSTYYADSVKGRFTFSRDNAKNTVYLQMNSLKPEETAVFYCAAAYRRPWWYSYRYGYWGQGTQVTVSS,high polyreactivity
6,QVQLVASGGGLVQAGGSLRLSCAASGSIFARYALGWYSQAPGKEREWVAALRWSGGRTYYADSVKGRFTISRDNAKNTVYLQMNSLKPEDTAVDYCNAVIHRLGKTYGTNRVDYWGQGTQVTVSS,high polyreactivity
7,QVQLVASGGGLVQAGGSLRLSCAASGSTFGSNAMGWYRQAPGKERELVAPINSGDSTSYADSVKGRFTISRDNAKNTVYLQMNSLKPEDTAVYYCATRYYTFVWRHDYWGQGTQVTVSS,low polyreactivity
8,QVQLVASGGGLVQAGGSLRLSCAASGSTFPRYAMGWYRQAPWKERELVAAITTSGGSTYYADSVKGRFTISRDNAKNTVYLQMNRLKPEDTAVYYCAADYCYYLDAGYYWGQGTQVTVSS,low polyreactivity
9,QVQLVASGGGLVQAGGSLRLSCAASGYTLFRNAMGWYRQAPGKERELVAAISRSGARTYYADSVKGRFTISRDNAKNTVYLQMNSLLPEDTAVYYCAAVIKWTKDDYWGQGTQVTVSS,high polyreactivity
10,QVQLVASGVGLVQAVGSLRLSCAASGITFQYYTMGWYRQAPGKERELVAAINWSGGSTYYADSVKGRFTISRDNAKNTVYLQMNSLKPEDTAVYYCNAVRFVEHDYWGQGTQVTVSS,high polyreactivity
11,QVQLVDSAGGLVQAGGTLRLSCADSGFTCSYYAMGWYRQAPGTERELVAAITSGGSTDYADSVKGRFTISRDNEKNTFYLQMHSLKPVDTAVFYCKITPYYAVFYYWGPGTQVTVSS,high polyreactivity
12,QVQLVDSCGGLVQAGGSLRLSFAASGRIYGPYAMGWYRQAPGKERELVAAISFSGSGTYYADSVKGRFTISRDNAKNTVYLQMNSLKPEDTAVYYCAADRWAHTHRLGYWGQGTQVTVSS,low polyreactivity
13,QVQLVDSEVGLVQAGGSHRLSCSASARTFGRYAMGWYRQAPGKERELVATIRWRVGSTYYADSVKGSFTISRDNAKNTVYLQMNSLKPEDTAVFYCAARRYSSGLTDDYWGQGTQVTVSS,high polyreactivity
14,QVQLVDSGGALVQAGGSLRLRCAASGSTFFPNAKGWYRQAPGKERELVATIKYADSVKGRFTISRYNAKNTVYLQMNSLKPEDTAVYYCAGGGRVRYDYWGQGTQVTVSS,low polyreactivity
15,QVQLVDSGGGIVQAGGSLRLSCAASGSTFGRKVMGWYRQAPGKERELVAAISFRGGSTYYADSVKGRFTISRDNAKNTVYLQMNSLKPEDTAVYYCARDYPTDAYDYWGQGTQVTVSS,low polyreactivity
16,QVQLVDSGGGLDQAGGSLRLSCAASGYTFWLYAMGWYRQAPGKERELVAAISRGGITNYADSVKGRFTISRDNAKNTVYLQMNSLKPEDTAVYYCAAEYRGRGWRYGYDDWGQGTQVTVSS,high polyreactivity
17,QVQLVDSGGGLLQAGGSLRLSCAASGRIFVYNAMGWYRQAPGKERELVAAITRGGSTYYADSVKGRFTISRDNAKNTVDLQMNSLKPEDPAGYYCAADYAWVSIYDNVPSAPGYDDWGQGTQGTVSS,low polyreactivity
18,QVQLVDSGGGLLQAGGSLRLSFAASGRTLNHYVMGWYRQAPGKERELVAAISSGGSTYYADSVKGRFTISRDNAKNTVYLQMNSLKPEDTAVYYCNAGVVGDYPYWGLMDYWGQGTKVTVSS,high polyreactivity
19,QVQLVDSGGGLVQAGASLRLSCAASGRIITAYYAMGWYRQAPGKERELVASISSSGTSTYADSVKGRFTISRDYAKNTVYLQMKSLKPEDTAVYYCATRKQRTRRYDYGYWGQGTQVTVSS,low polyreactivity
20,QVQLVDSGGGLVQAGGILRLSCAASGRIFYYNTMGWSRQAPGKERELVARITYSGGRTYYADSVKGRFTISRDNAKNTVYLQMNSLKPEDTAVYYCAARRRTFYATSSAINGYDYWGQGTQVTVSS,high polyreactivity

# Reference: the nanobody polyreactivity screen of Harvey et al. (2022)
